Experimental data: IntAct's records for PubMed 19737519

Columns and labels:
nle1_yeast RSA4 [1] = biological target: nle1_yeast RSA4 (UniProt P25382)
nle1_yeast RSA4 [2] = biological target: nle1_yeast RSA4 (UniProt P25382); remark: listed apart in the source

UniProt P25382, sequence (P25382 whole entry): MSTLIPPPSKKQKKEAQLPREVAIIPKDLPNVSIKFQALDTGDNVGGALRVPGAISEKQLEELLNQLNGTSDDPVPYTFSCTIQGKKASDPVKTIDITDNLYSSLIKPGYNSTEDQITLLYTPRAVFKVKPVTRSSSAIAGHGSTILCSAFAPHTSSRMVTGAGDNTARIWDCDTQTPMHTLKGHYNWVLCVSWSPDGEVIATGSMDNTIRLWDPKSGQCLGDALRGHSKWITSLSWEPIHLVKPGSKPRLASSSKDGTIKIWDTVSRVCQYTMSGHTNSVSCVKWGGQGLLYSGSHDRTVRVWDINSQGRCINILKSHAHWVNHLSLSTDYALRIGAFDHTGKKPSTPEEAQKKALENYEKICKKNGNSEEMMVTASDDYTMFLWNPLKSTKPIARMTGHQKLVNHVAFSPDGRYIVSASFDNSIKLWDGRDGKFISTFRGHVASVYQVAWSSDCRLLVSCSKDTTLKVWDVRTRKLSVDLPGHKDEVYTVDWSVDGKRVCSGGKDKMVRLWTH

## Midasin (Saccharomyces cerevisiae), Q12019 S4712T
nle1_yeast RSA4 [1]
  effect of a mutation on the interaction: decreasing interaction

## Midasin (Saccharomyces cerevisiae), Q12019 S4712A;S4714A
nle1_yeast RSA4 [1]
  effect of a mutation on the interaction: disrupting interaction
nle1_yeast RSA4 [2]
  effect of a mutation on the interaction: decreasing interaction
